{"source": "paper PMC2172197", "key": {"[1]": {"target": "pFd-protAHis (preferredoxin fused to Staphylococcal protein A, COOH-terminal hexahistidine tag)", "assay": "pull-down"}, "[2]": {"target": "pFd-protAHis (preferredoxin fused to Staphylococcal protein A, COOH-terminal hexahistidine tag)", "assay": "pull-down", "remark": "listed apart in the source"}}, "note": "Where two headings read alike, the source gives them in different places.", "data": [{"substance": "[35S]atToc159 (in vitro-translated soluble atToc159) (from UniProt O81283 1-1503) (receptor)", "values": [{"measurement": "percent reduction of binding against GTP", "setting": "[1]", "value": 20, "unit": "%"}, {"measurement": "percent reduction of binding against GTP", "setting": "[2]", "value": 20, "unit": "%"}]}, {"substance": "[35S]atToc159-K868R (from UniProt O81283 1-1503) (receptor)", "values": [{"measurement": "percent less binding than wild-type atToc159", "setting": "[2]", "value": 60, "unit": "%"}]}, {"substance": "[35S]atToc159G (in vitro-translated G domain of atToc159) (domain or fragment)", "values": [{"measurement": "fold higher binding than to Fd-protAHis", "setting": "[2]", "value": 3, "unit": "fold"}]}]}
